Source: paper PMC12486124 (bioRxiv, 2025)

Molecular target: reconstituted nucleosome (Xenopus laevis histone octamer on Widom 601 DNA) (Xenopus laevis)
Experiment: fluorescence polarisation

B1: E2F1-DP2 DNA binding domains heterodimer (complex)
chain 1: not shown
chain 2: KNGKGLRHFSMKVCEKVQRKGTTSYNEVADELVSEFTNSNNHLAADSAYDQKNIRRRVYDALNVLMAMNIISKEKKEIKWIG
Kd: 120 ± 10 nM
